Measured values taken from US20200003757A1, “METHOD OF IDENTIFYING AGENTS THAT AFFECT MATURATION, SURVIVAL AND MYELINATION” (KADIMASTEM, LTD., priority 2011, published 2020).

B1: Noggin: an inhibitor of BMP signaling (Preprotech, Israel) (protein, UniProt Q13253 28-232, looked up)
Noggin: QHYLHIRPAPSDNLPLVDLIEHPDPIFDPKEKDLNETLLRSLLGGHYDPGFMATSPPEDRPGGGGGAAGGAEDLAELDQLLRQRPSGAMPSEIKGLEFSEGLAQGKKQRLSKKLRRKLQMWLWSQTFCPVLYAWNDLGSRFWPRYVKVGSCFSKRSCSVPEGMVCKPSKSVHLTVLRWRCQRRGGQRCGWIPIQYPIISECKCSC
B2: IFN-Y: recombinant human IFN-Y (R&D systems, Biotest, 285-IF-100) (protein, UniProt P01579 24-161, looked up)
Interferon gamma: QDPYVKEAENLKKYFNAGHSDVADNGTLFLGILKNWKEESDRKIMQSQIVSFYFKLFKNFKDDQSIQKSVETIKEDMNVKFFNSNKKKRDDFEKLTNYSVTDLNVQRKAIHELIQVMAELSPAAKTGKRKRSQMLFRG

Legend:
hES-OPC = assay: Differentiation assay; dose response of Noggin on hES-OPC (O4/DAPI staining, Cellomics neuronal profiling); format: cell-based, human
Procedure: 5000 hES-OPC were seeded in each well of Matrigel and PDL-coated 96 well black clear plates (CI-3603, Corning). The medium used for the experiment comprised DMEM/F12 with 0.5% (v/v) N2 supplement (Invitrogen), 1% (v/v) B27 supplement, Glutamax and 100 U/ml penicillin and 100 μg/ml streptomycin (Biological Industries, IL). The cells were deprived from growth factors 24 hours prior to seeding. 12 hours following seeding, increasing doses of Noggin (Preprotech, Israel) were supplemented to the media for the ten days of differentiation. The Noggin doses ranged between 15 nM to 0.015 nM (450 ng/ml to 0.45 ng/ml) with 3.16 fold dilutions (square root of 10) in the presence of 0.1% DMSO and 50 μg/ml Vitamin C. Samples without Noggin in the presence of 0.1% DMSO and 50 μg/ml Vitamin C served as negative control. The media was changed every other day by replenishing ⅔ of the media. On day ten, the wells were fixed using 4% paraformaldehyde (PFA) for further O4 and Dapi staining.
Cells were fixed using 4% paraformaldehyde (PFA), washed with PBS and kept at 4° C. before staining. Non-specific staining was blocked with normal goat serum (5% w/v in PBS) for 30 minutes at RT. Primary mouse monoclonal (mMc) and rabbit polyclonal antibodies, diluted in 1% goat serum, were as described in Table 2, herein below. All staining was followed by the nuclear fluorescent dye DAPI (Sigma, 0.05 μg/ml). All coverslips were mounted in Mowiol (Calbiochem, La Jolla, Calif.). An Olympus IX-70 FLA microscope with a DVC-1310C digital camera (DVC, Austin, Tex.) was used and images processed with Photoshop and analyzed with Image-Pro-Plus software (Media Cybernetics, Silver Spring, Md.) to measure Integrated Optic Density (IOD) of color-specific pixels and MBP positive fiber length. […]
BMP signaling negatively regulates oligodendrocyte lineage development, and it has been shown that Noggin, an inhibitor of BMP signaling, promotes the differentiation of ES-derived oligodendrocytes. As a proof of concept that effects of drugs on oligodendrocyte differentiation can be quantified, the inventors searched for the optimal concentration of Noggin to be used to promote differentiation. […] Nuclear DNA staining with DAPI was used to quantify the cell number per field, and oligodendrocytes were characterized by staining with O4. […] Similarly, O4 positive processes (green) were counted and measured only if attached to O4 cell body. Places where one process becomes two were counted as branch point (FIGS. 3D-E, yellow circles). The numbers of processes, their lengths, and the number of branch points per O4 positive cell body were counted. […] Thus, it may be concluded that the present assay is capable of quantifying the effect of Noggin. […]

human oligodendrocytes = assay: Human oligodendrocytes and hESC-OPC survival assay (dead cell labeling and O4 labeling); format: cell-based; conditions: 14 days in culture
Procedure: In order to evaluate the survival of human oligodendrocytes or its progenitor cells in culture, a specific dead cell labeling (Live/dead viability/cytotoxicity kit for mammalian cells, Invitrogen, molecular probes, L3223) was used. A culture of differentiated oligodendrocytes and oligodendrocytes progenitor culture sorted by O4+ or CD140+ MACS sorting respectively were obtained. The effect of recombinant human IFN-Y (R&D systems, Biotest, 285-IF-100) was tested on oligodendrocytes survival. Following 14 days in culture the cells were labeled with dead cell labeling (Ethidium heterodimer 1-red labeling) and O4 labeling (green). […] Such an assay gives complementary results on the effect of tested compound on oligodendrocytes survival.

| Molecule | morphology of O4 positive OLs versus absence of Noggin (hES-OPC; Noggin added after growth factor removal, FIGS. 3A-C) | number of O4 positive cell per well (hES-OPC; ten days differentiation with noggin treatment) | process numbers per cell, total process length per well, number of branch points per cell (hES-OPC; ten days differentiation, O4 positive cells, serial dilutions of Noggin) | EC50 (hES-OPC; ten days without growth factors, O4 staining, triplicate, FIG. 3F, read-out: EC50 (50% of the maximal effect), curve generated by integrating process numbers per cell, total process length per well and number of branch points per cell) | percentage of dead cells (human oligodendrocytes; Ethidium heterodimer 1 labeling, FIG. 12E) | number of differentiated oligodendrocytes (O4+ cells) (human oligodendrocytes; O4 labeling, FIG. 12F) |
| --- | --- | --- | --- | --- | --- | --- |
| B1 | stimulates the emergence of OLs with longer and multiple processes | not changed | correlated with Noggin concentration | 0.157 nM |  |  |
| B2 |  |  |  |  | increased the percentage of dead cells | decreased the number of differentiated oligodendrocytes |
